In assay [1] the target is GST-OsGAP1 (rice (Oryza sativa)) (UniProt Q6YWF1). Kind of assay: ITC; MicroCal ITC200; 400–500 µM (His)6-OsYchF1, its truncated derivatives or (His)6-tag in the syringe titrated into 20–30 µM GST-OsGAP1 or GST-tag in the chamber; 20 mM Tris-HCl pH 7.5, 20 mM NaCl, 1 mM DTT; 25 °C.
In a further assay the target is T1, GST-OsGAP1 (rice (Oryza sativa), UniProt Q6YWF1 1-165).
T1 construct: also called GST-tagged OsGAP1; source: E. coli BL21 (DE3) pLysS, purified; not shown: GST, N-terminal, kept
T1 sequence (looked up): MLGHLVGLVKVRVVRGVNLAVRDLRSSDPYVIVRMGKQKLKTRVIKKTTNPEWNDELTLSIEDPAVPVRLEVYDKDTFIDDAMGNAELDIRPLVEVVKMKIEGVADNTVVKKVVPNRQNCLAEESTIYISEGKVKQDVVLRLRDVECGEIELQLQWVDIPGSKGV
The description is as above. Particulars: both partners purified.

As usually defined, the Kd is the free concentration of one partner at which half of the binding sites on the other are occupied at equilibrium, for simple one-to-one binding. Read a low Kd as higher affinity. Usually stoichiometry N stands for the number of molecules, sites or subunits per partner or assembly.

In assay [1], “(His)6-OsYchF1 (No TGS domain) (from UniProt Q6Z1J6 1-302) (domain or fragment)” returned a Kd of 98.7 µM, a dH of -0.7 kcal/mol and a stoichiometry N of 0.2.
In assay [1], “full-length (His)6-OsYchF1 (from UniProt Q6Z1J6 1-394) (natural protein)” came in with a dissociation constant Kd of 103 µM and a stoichiometry N of 0.6.

B1: (His)6-OsYchF1 (TGS domain) (domain or fragment, rice (Oryza sativa), UniProt Q6Z1J6 303-394, looked up)
chain: HLIYFFTAGPDEVKCWQIRRQTKAPQAAGTIHTDFERGFICAEVMKFDDLKELGSESAVKAAGKYRQEGKTYVVQDGDIIFFKFNVSGGGKK
notes: OsYchF1, rice, TGS domain, aa 303-394; also called (His)6-TGS; source: E. coli BL21 (DE3) pLysS, purified; not shown: His6, N-terminal, kept; thioredoxin (Trx), N-terminal, kept; S-tag, N-terminal, kept
For the molecule B1, in the assay with GST-OsGAP1, binding was put at a Kd of 5.1 ± 2.3 µM, the dH is -3.4 ± 1.1 kcal/mol and the “stoichiometry N” value was 0.6 ± 0.1.

B2: (His)6-OsYchF1 (G domain) (domain or fragment, rice (Oryza sativa), UniProt Q6Z1J6 1-128, looked up)
chain: MPPKASKKDAAPAERPILGRFSSHLKIGIVGLPNVGKSTFFNIVTKLSIPAENFPFCTIDPNEARVYVPDERFDWLCQLYKPKSEVSAYLEINDIAGLVRGAHAGEGLGNAFLSHIRAVDGIFHVLRA
notes: OsYchF1, rice, G domain, aa 1-128; also called (His)6-G; source: E. coli BL21 (DE3) pLysS, purified; not shown: His6, N-terminal, kept; thioredoxin (Trx), N-terminal, kept; S-tag, N-terminal, kept
Consider B2, for which, in the assay with GST-OsGAP1, the Kd was determined as 11.9 ± 6.7 µM, the dH was -2 ± 1.4 kcal/mol and the “stoichiometry N” value was determined as 0.5 ± 0.7.

Source of the values: article PMC12480156, “From biophysical interaction to structural modeling: bi-terminal G and TGS domains drive rice OsYchF1-OsGAP1 complex formation” (Botanical Studies, 2025).
